Assays:
[1] = biological target: polarity-marked microtubules (polymerised alpha-beta tubulin) (porcine) (UniProt P02554); assay: single molecule fluorescence motility assay; purified Cin8-3GFP-6His variants on polarity-marked Taxol MTs; MB-45 (MB with 45 mM NaCl, IS = 0.187), 4 mM ATP; 90 s recordings
[2] = biological target: polarity-marked microtubules (polymerised alpha-beta tubulin) (porcine) (UniProt P02554); assay: single molecule fluorescence motility assay; purified Cin8-3GFP-6His variants on polarity-marked Taxol MTs; MB-90 (MB with 90 mM NaCl, IS = 0.232), 4 mM ATP; 90 s recordings
[3] = biological target: polarity-marked microtubules (polymerised alpha-beta tubulin) (porcine) (UniProt P02554); assay: single molecule fluorescence motility assay; purified Cin8-3GFP-6His variants on polarity-marked Taxol MTs; MB-135 (MB with 135 mM NaCl, IS = 0.277), 4 mM ATP; 90 s recordings
[4] = biological target: polarity-marked microtubules (polymerised alpha-beta tubulin) (porcine) (UniProt P02554); assay: single molecule fluorescence motility assay; Cin8-3GFP variants in whole cell extract on polarity-marked Taxol MTs; MB-30 (MB with 30 mM NaCl, IS = 0.172), 4 mM ATP; 90 s recordings, 1 s frames
[5] = biological target: polarity-marked microtubules (polymerised alpha-beta tubulin) (porcine) (UniProt P02554); assay: single molecule fluorescence motility assay; Cin8-3GFP variants in whole cell extract on polarity-marked Taxol MTs; MB-80 (MB with 80 mM NaCl, IS = 0.222), 4 mM ATP; 90 s recordings, 1 s frames

% of moving molecules with interaction times longer than 90 s [1] [%]	% of moving molecules with interaction times longer than 90 s [2] [%]	% of moving molecules with interaction times longer than 90 s [3] [%]	% of moving molecules with interaction times longer than 90 s [4] [%]	% of moving molecules with interaction times longer than 90 s [5] [%]	Substance
71	53	14			purified wild type Cin8-3GFP-6His (plasmid pOS2) (from UniProt P27895 1-1000) (natural protein)
			75	21	wild type Cin8-3GFP (whole cell extract, strain LGY 2055) (from UniProt P27895 1-1000) (natural protein)
